Literature values in publication PMC8712716.

Tests used:
TGF-beta1 (Homo sapiens) = TGF-beta1 (Homo sapiens) (UniProt P01137)
NGF-beta (Homo sapiens) = NGF-beta (Homo sapiens) (UniProt P01138)
FGF-2 (Homo sapiens) = FGF-2 (Homo sapiens) (UniProt P09038)
TNF-alpha (Homo sapiens) = TNF-alpha (Homo sapiens) (UniProt P01375)
GRP78 (Homo sapiens) = GRP78 (Homo sapiens) (UniProt P11021)
TGF-beta2 (Homo sapiens) = TGF-beta2 (Homo sapiens) (UniProt P61812)
Chain of TGF-beta2 (Homo sapiens) (P61812 303-414): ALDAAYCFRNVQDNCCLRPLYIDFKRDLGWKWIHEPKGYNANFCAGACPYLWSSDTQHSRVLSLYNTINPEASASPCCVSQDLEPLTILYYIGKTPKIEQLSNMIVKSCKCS

Chain of alpha-2-macroglobulin (P01023 24-1474): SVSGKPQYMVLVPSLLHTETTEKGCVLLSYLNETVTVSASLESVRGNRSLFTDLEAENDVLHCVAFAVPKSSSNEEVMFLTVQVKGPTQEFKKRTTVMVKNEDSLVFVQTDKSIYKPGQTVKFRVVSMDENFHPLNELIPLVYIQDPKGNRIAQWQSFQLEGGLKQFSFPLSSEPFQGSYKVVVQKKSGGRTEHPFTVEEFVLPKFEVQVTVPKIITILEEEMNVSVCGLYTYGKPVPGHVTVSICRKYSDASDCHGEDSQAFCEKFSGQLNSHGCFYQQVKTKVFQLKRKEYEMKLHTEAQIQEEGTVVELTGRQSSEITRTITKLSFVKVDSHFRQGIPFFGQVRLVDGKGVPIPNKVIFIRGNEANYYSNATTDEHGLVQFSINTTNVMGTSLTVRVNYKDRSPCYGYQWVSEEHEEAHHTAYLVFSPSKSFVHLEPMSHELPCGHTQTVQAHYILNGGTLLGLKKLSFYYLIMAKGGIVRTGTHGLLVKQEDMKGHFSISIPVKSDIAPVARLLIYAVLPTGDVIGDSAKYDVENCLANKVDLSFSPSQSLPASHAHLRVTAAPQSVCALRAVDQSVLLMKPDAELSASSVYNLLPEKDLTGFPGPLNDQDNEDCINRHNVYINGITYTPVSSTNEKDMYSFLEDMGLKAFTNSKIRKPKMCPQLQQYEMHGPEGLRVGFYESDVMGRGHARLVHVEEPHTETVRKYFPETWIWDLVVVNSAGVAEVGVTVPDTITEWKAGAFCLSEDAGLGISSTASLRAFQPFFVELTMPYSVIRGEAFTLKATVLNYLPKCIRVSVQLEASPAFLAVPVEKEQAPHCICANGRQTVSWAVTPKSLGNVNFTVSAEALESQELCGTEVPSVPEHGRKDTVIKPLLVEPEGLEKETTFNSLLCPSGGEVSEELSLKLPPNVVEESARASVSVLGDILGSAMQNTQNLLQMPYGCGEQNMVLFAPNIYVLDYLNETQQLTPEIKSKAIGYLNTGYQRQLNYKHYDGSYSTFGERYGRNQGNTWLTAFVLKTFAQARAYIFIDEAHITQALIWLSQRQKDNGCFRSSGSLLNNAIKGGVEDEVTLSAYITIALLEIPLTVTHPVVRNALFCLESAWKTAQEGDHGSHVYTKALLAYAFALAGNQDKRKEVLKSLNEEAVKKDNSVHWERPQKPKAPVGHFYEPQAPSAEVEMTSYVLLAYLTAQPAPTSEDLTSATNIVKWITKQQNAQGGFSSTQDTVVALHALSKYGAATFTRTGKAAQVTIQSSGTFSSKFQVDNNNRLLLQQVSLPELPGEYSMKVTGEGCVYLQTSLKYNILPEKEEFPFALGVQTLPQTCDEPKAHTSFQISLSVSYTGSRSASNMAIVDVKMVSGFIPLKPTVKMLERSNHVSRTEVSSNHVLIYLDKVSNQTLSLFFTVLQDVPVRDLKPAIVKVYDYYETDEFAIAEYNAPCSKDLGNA
Chain of GRP78 (Homo sapiens) (P11021 19-654): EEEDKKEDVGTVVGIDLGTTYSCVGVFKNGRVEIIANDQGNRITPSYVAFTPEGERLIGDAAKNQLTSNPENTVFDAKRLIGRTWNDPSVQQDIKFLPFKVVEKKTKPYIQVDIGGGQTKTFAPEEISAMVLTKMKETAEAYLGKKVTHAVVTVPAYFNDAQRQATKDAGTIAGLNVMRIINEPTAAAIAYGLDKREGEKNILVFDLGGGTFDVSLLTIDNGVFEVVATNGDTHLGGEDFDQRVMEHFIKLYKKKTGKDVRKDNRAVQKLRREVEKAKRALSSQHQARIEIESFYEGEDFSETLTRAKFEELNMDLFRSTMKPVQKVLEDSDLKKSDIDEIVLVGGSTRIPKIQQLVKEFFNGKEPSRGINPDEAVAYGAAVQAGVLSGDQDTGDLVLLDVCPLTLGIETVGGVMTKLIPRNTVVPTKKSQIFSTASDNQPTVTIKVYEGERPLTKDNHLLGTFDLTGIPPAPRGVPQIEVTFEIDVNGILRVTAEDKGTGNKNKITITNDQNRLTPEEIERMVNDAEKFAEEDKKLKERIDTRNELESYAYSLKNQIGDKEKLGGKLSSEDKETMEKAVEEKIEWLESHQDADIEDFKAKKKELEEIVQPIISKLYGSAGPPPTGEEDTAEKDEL
Chain of TGF-beta1 (Homo sapiens) (P01137 279-390): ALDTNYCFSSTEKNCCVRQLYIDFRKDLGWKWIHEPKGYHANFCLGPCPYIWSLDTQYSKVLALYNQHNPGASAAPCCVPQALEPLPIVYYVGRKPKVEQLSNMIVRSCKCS
Chain of FGF-2 (Homo sapiens) (P09038 143-288): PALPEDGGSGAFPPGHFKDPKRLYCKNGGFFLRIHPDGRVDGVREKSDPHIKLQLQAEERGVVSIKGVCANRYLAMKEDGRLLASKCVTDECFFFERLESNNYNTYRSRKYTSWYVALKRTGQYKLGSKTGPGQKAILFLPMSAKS
Chain of TNF-alpha (Homo sapiens) (P01375 77-233): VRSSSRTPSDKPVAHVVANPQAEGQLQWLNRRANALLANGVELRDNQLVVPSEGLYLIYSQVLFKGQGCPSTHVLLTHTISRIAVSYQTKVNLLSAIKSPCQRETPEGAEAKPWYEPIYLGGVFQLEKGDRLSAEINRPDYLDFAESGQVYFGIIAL
Chain of NGF-beta (Homo sapiens) (P01138 122-241): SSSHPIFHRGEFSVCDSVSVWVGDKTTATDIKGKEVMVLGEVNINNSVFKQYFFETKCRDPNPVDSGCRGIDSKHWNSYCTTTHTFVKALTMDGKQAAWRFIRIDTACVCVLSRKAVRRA

Kd (TGF-beta1 (Homo sapiens)): 0.08 µM
Kd (NGF-beta (Homo sapiens)): 0.11 µM
Kd (FGF-2 (Homo sapiens)): 0.59 µM
Kd (TNF-alpha (Homo sapiens)): > 0.75 µM
Kd (GRP78 (Homo sapiens)): 0.00015 µM
Kd (TGF-beta2 (Homo sapiens)): 0.012 µM
Substance: alpha-2-macroglobulin (from UniProt P01023)
